Laboratory results from US20230212294A1 (MINGHUI PHARMACEUTICAL SHANGHAI, published 2023).
Substitutions are numbered along the chain they refer to.

T1: B7-H3 on CHOK cells overexpressing B7-H3
T1 sequence (Q5ZPR3 whole entry, species assumed, looked up): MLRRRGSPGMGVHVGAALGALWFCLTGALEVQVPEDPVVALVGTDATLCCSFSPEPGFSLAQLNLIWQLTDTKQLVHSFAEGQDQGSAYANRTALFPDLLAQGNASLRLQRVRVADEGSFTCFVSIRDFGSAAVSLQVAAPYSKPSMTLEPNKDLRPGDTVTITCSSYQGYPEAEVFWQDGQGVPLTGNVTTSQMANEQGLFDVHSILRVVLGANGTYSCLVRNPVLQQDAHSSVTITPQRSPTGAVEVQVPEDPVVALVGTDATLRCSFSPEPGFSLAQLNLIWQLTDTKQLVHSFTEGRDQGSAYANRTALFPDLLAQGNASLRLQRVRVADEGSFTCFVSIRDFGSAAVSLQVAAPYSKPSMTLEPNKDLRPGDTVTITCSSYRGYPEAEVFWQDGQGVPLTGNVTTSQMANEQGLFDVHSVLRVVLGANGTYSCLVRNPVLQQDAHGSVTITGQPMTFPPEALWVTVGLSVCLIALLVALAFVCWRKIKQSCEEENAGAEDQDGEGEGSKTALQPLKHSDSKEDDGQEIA

T2: B7-H3 endogenously expressed on human tumor cell lines (human, UniProt Q5ZPR3 29-534)
T2 sequence (looked up): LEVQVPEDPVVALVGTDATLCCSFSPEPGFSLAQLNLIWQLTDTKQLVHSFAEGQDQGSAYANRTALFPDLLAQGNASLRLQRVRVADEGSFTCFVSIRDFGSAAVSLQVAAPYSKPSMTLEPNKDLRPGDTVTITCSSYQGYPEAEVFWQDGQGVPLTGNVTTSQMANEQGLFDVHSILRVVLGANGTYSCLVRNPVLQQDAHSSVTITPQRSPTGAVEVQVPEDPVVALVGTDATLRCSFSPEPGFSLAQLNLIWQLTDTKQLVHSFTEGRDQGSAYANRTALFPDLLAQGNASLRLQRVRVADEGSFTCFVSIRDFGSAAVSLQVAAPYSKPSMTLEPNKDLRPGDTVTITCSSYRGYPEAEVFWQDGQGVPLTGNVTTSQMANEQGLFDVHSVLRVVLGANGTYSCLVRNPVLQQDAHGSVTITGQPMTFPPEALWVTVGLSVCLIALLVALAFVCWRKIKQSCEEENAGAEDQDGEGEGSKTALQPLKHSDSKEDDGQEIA

T3: mouse B7-H3-his (mouse, UniProt Q8VE98 29-244, limits assumed)
T3 construct: His-tagged recombinant protein coated on the ELISA plate; not shown: his tag
T3 sequence (looked up): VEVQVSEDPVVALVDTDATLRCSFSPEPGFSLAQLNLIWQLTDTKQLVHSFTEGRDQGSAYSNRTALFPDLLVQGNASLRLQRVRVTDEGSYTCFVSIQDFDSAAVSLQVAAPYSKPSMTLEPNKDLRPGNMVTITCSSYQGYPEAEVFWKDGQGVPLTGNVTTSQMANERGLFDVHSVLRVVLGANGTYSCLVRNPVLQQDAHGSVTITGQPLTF

T4: monkey B7-H3-his (monkey)
T4 chain: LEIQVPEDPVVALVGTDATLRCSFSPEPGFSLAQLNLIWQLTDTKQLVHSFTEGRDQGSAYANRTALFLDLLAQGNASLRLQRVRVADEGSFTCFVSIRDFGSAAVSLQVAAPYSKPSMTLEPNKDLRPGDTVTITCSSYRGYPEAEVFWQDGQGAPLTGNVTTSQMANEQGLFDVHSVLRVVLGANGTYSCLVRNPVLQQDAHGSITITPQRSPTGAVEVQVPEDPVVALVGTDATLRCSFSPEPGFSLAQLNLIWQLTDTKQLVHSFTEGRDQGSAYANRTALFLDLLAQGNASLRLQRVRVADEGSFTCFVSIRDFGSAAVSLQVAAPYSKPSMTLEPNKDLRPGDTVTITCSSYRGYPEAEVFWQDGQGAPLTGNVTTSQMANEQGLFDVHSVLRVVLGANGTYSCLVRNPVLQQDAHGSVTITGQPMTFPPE

B1: IL-P7-C05 (antibody, V domains shown)
VH: EVQLVESGGDLVQPGGSLKLSCAASGFTFSSYGMSWVRQTPDKRLELVATINSNGGTTYYPDSVKGRFTISRDNAKHTLYLQMSSLKSEDTAMYYCTRNEEFRRGLAYWGQGTLVTVSA
VL: DIQMIQSPASLSVSVGETVTITCRASENIYSNLAWYQQKQGKSPQLLVYAATNLADGVPSRFSGSGSGTQYSLKINSLQSEDFGSYYCQHFWGTPPWTFGGGTKLEIK
notes: Unhumanized murine variable regions from the murine immune phage library; tested as full-length antibody expressed in ExpiCHO-S cells
B2: IL-P7-A06 (antibody, V domains shown)
VH: QVQLQQSGPEVVRPGVSVKISCKGSGYTFTDYAMHWVKQSHAKSLEWIGIINTYNGNTNYNQKFKGKATMTVDKSSSTAYMEFARLTSEDSAIYYCARSRGPWDRYFDVWGAGTTVTVSS
VL: DIVMTQSQKFMSTSVGDRVSVTCKASQNVGTAVAWYQQKPGQSPKLLIYSASNRYTGVPDRFTGSGSGTDFTLTISNMQSEDLADYFCQQYSSYPFTFGSGTKLEIK
notes: Unhumanized murine variable regions; full-length antibody
B3: IL-P7-C05-H4L3-MMAE (antibody, V domains shown)
VH: EVQLVESGGGLVQPGGSLRLSCAASGFTFSSYAMSWVRQAPGKGLELVAAINSNGGSTYYADSVKGRFTISRDNAKNTLYLQMSSLRAEDTAVYYCTRNEEFRRGLAYWGQGTLVTVSS
VL: DIQMTQSPSSLSASVGDRVTITCRASENIYSNLAWYQQKPGKAPKLLIYAASNLQSGVPSRFSGSGSGTDYTLTISSLQPEDFATYYCQHFWGTPPWTFGQGTKLEIK
modifications: MMAE (Monomethyl auristatin E) coupled to the antibody; linker, site and drug load not stated
B4: IL-P7-C05-H4L3 (antibody, V domains shown)
VH: B3 VH
VL: B3 VL
notes: Humanized from IL-P7-C05; full-length antibody; also called ILP7C05huVH4 + ILP7C05huVL3
B5: IL-P5-C06 (antibody, V domains shown)
VH: QVQLQQSGPELVRPGVSVKISCKGSGYTFTDYAIHWAKQGHAKSLEWIGIINTYNGNSNYNQNFKGKATMTVDKSSSTAYMELTRLTSEDSAIYYCARNYGSSFNWYFDVWGQGTTLTVSS
VL: DIVLTQSPTTMAASPGEKITITCSASSSISSNYLHWYQQKPGFSPKLLIYSTSNLASGVPARFSGSGSGTSYSLTISSVEAEDAATYYCQQYSGYPLTFGAGTKLELK
notes: Unhumanized murine variable regions from the murine immune phage library; full-length antibody
B6: IL-P6-D06 (antibody, V domains shown)
VH: QVQLQQSGPELVRPGVSVKISCKGSGYTFTDYAIHWVKQSHAKSLEWIGVINTYSGNTNYNQKFKGRATMTVDKSSSTAYMELARLTSEDSAIYFCARGVTYGSGYPYWYFDVWGAGTTVTVSS
VL: B2 VL with A32N, L46A, N53Y, T56S, M78V, D85E, S92N, F96Y, S100G
notes: as for B2
B7: IL-P5-B01 (antibody, V domains shown)
VH: EVQLQESGPSLVKPSQTLSLTCSVTGDSITSGSWNWIRKFPGNKLEYMGYISYSGSIYYNPSLKSRISITRDTSKNQYYLQLNSVTTEDTATYYCARGNPAWFAYWGQGTLVTVSA
VL: B2 VL with A32N, L46A, N53Y, T56S, M78V, D85E, S92N, F96Y, S100G
notes: as for B2
B8: IL-P6-C08 (antibody, V domains shown)
VH: EVKLVESGGDLVKPGGSLKLSCAASGFTFSSYGMSWVRQTSDKRLEWVATISGGGRYTYYPDSVKGRFTISRDSSKNTLYLQMSSLKSEDTAMYYCVRHYDGYLDYWGLGTTLTVSS
VL: DIQMIQSPASLSASVGETVTITCRASENIYSYLAWYQQKQGKSPQLLVYNAKTLAEGVPSRFSGSGSGTQFSLKINSLQPEDFGSYYCQHHYGTPPYTFGGGTKLEIK
notes: as for B2

Legend:
[1] = target: T1, B7-H3 on CHOK cells overexpressing B7-H3; experiment: cell-based or functional assay
[2] = target: T2, B7-H3 endogenously expressed on human …; experiment: cell-based or functional assay
[3] = target: T3, mouse B7-H3-his; experiment: ELISA, antigen coated at 2 µg/mL
Method: (§1) Human B7-H3-his, mouse B7-H3-his and monkey B7-H3-his were diluted to 2 μg/mL with PBS, and added to the ELISA plate at 30 μL per well. The ELISA plate was then incubated in a refrigerator at 4° C. for 16-20 hours. The next day, the ELISA plate was washed once with a lotion (PBS containing 0.05% Tween 20) and then blocked with 5% skim milk powder for 1 hour. After blocking, the ELISA plate was washed once, then added with gradient-diluted anti-B7-H3 antibodies, and incubated at room temperature for 1 h. After incubated, the ELISA plate was washed three times, then added with goat anti-human HRP-labeled secondary antibody, and incubated at room temperature for 1 h. After incubated, the ELISA plate was washed three times, then developed for 5-15 minutes by adding TMB, and finally terminated with 2M sulfuric acid. The data were recorded on the microplate reader.

[4] = target: T4, monkey B7-H3-his; experiment: ELISA, antigen coated at 2 µg/mL
Method: as §1

[5] = target: T2, B7-H3 endogenously expressed on human …; experiment: flow cytometry on NCI-H322 cells
Method: (§2) CHOK cells overexpressing B7-H3 or NCI-H322 cells endogenously expressing B7-H3 were added to a round-bottom 96-well plate at 100,000 cells per well, centrifuged to remove the supernatant, and then added with a gradient-diluted anti-B7-H3 antibody and incubated at 4 degrees for 1 h. After incubation, the cells were washed twice with FACS buffer (PBS containing 2% FBS), then added with fluorescent-labeled goat anti-human secondary antibody (Abcam, ab98596) and incubated for 0.5 h. After incubation, the cells were washed twice with FACS buffer, then resuspended with FACS buffer and detected with flow cytometry (Beckman, cytoFlex).

[6] = target: T1, B7-H3 on CHOK cells overexpressing B7-H3; experiment: flow cytometry on CHOK cells overexpressing B7-H3
Method: as §2

[7] = target: T3, mouse B7-H3-his; experiment: ELISA, mouse B7-H3-his coated at 2 µg/mL
Method: as §1

[8] = target: T2, B7-H3 endogenously expressed on human …; experiment: cell-based or functional assay; remark: listed apart in the source
[9] = target: T2, B7-H3 endogenously expressed on human …; experiment: cell-based or functional assay; remark: listed apart in the source

Binder	IC50 of CHO endocytosis experiment (toxin-labeled secondary antibody, cell viability) [1]	IC50 of NCI-H322 endocytosis experiment (toxin-labeled secondary antibody, cell viability) [2]	EC50 [3]	EC50 [4]	EC50 [5]	EC50 [6]	binding result [7]	Inhibitory IC50 against proliferation of BxPC-3 cells, 72 h, CellTiter-Glo [8]	Inhibitory IC50 against proliferation of NCI-H1975 cells, 72 h, CellTiter-Glo [8]	Inhibitory IC50 against proliferation of BxPC-3 cells, 5 days, CellTiter-Glo [9]	Inhibitory IC50 against proliferation of Calu-6 cells, 5 days, CellTiter-Glo [9]
B1	0.0144 µg/mL	0.00296 µg/mL	1.21 µg/mL	0.14 µg/mL	0.0126 µg/mL	0.487 µg/mL	–	–	–	–	–
B2	0.0086 µg/mL	–	–	–	0.072 µg/mL	0.278 µg/mL	no binding	–	–	–	–
B3	–	–	–	–	–	–	–	7.7 nM	7.4 nM	5.5 nM	0.3 nM
B4	0.0199 µg/mL	0.00253 µg/mL	–	–	0.0137 µg/mL	0.48 µg/mL	–	–	–	–	–
B5	0.0209 µg/mL	0.0025 µg/mL	0.134 µg/mL	0.116 µg/mL	0.0795 µg/mL	0.954 µg/mL	–	–	–	–	–
B6	–	0.00179 µg/mL	1.13 µg/mL	0.119 µg/mL	0.103 µg/mL	0.245 µg/mL	–	–	–	–	–
B7	0.0028 µg/mL	–	–	0.115 µg/mL	0.131 µg/mL	0.43 µg/mL	no binding	–	–	–	–
B8	–	–	–	0.0541 µg/mL	0.158 µg/mL	–	no binding	–	–	–	–
